Experimental findings from patent US20260275304A1, “METHODS AND COMPOSITIONS FOR GLYPHOSATE TOLERANCE IN PLANTS” (Monsanto Technology LLC, priority 2023, published 2026) are described below.

Positions count from the first letter of the chain named. Names and notes keep the numbering of the source. Where two headings read alike, the source gives them in different places.

Data set [1] has as its system S. cerevisiae strain sKR-024. As to the kind of experiment: Growth of synthetic yeast strain sKR-024 expressing EPSPS variants with or without glyphosate. Type of data set: cell-based, Saccharomyces cerevisiae. The settings on record: for growth in yeast minimal media without glyphosate: 0 mM glyphosate; for order of glyphosate tolerance: 5 mM glyphosate, FIG. 1 Panel C; for glyphosate tolerance in synthetic yeast host: mutants isolated from directed evolution. As to the method:
EPSPS variants were re-cloned into a clean p416-Core1p backbone and transformed into strain sKR-024 as described above. Colonies were then picked in triplicate into YSC-Ura-Leu and outgrown for 2 days at 30° C. Cultures were then diluted back to OD 0.001 in yeast minimal media (YMM) containing varying amounts of glyphosate as indicated. Growth rate measurements were then obtained using an Infinite M200 PRO microplate reader (Tecan, Männedorf, Switzerland) with incubation at 30° C. for 72-120 hours depending on growth rate of selected variants.
To determine if this system could further corroborate observations from previous literature, the well-studied EPSPS mutants T102I and P106S, and the combined double mutant TIPS (T102I-P106S) were generated and complemented into this yeast system. These mutations were reported to result in varying degrees of glyphosate resistance.
Having established low copy number and weak promoter expression of EPSPS variants, it was sought to recharacterize phenotypes under field conditions that are used in planta. […] It has been reported previously that under standard glyphosate foliar application, 0.3 mM or more of glyphosate (gly) can accumulate in a plant's root nodules and meristems. […] These trends support reported literature of mutants P106S and TIPS grown in various plant hosts. As a result, the present synthetic yeast model system closely resembles in planta observations and thus can be used to select for dual-trait EPSPS variants aimed at both enzymatic efficiency and glyphosate resistance.
Select mutants isolated from the final directed evolution campaign with the improved selection strategy were further evaluated in assorted glyphosate concentrations to determine growth characteristics. Mutants isolated from an EPSPS background were evaluated in media containing 0 mM and 0.25 mM glyphosate with the latter being the concentration at which wild-type EPSPS cannot grow after 100 hours. […] The non-glyphosate mono selection highlighted in blue represents mutations resulting from 5 subcultures in 0 mM glyphosate. The low glyphosate dual selection highlighted in light green represents mutants resulting from an additional subculture into 0.5 mM glyphosate. Lastly, the high glyphosate dual selection highlighted in dark green represent mutations isolated after subcultures in increasing levels of glyphosate, up to 10 mM.

The test system of data set [2] is maize EPSPS. Nature of the data set: In vitro characterization of EPSPS mutants (EnzChek phosphate assay, Michaelis-Menten kinetics, glyphosate Ki). Type of data set: biochemical, Zea mays. The settings on record: for Km: apparent Km, mean±S.E.; for Ki: inhibitory constant for glyphosate, no unit in table (around 800 μM). As to the method:
Activity was determined by quantifying release of Pi, coupled to a reaction with MESG, catalyzed by purine-nucleoside phosphorylase using the EnzChek Phosphate Assay Kit from Invitrogen, first published in 1992. 95 μL of master mix was added to each well and 5 μL of the varied substrate dilutions were multi-channeled into the plate to start the reaction simultaneously for all conditions. Absorbance measurements at 360 nm were taken every 10 seconds for 3 minutes to capture the initial reaction rate of each condition. Varying levels of substrate were added to generate the resulting reaction rate curves. Each condition was performed in triplicate. Ki was determined as previously described (Lu, et al., Protein Engineering, Design and Selection 30:395-399 (2017)). Data was fit to the Michaelis-Menten kinetics equation and were also validated through GraphPad Prism's built-in function for each variant.
For protein expression of EPSPS and its variants, E. coli BL21 (DE3) was used as the expression host. Electrocompetent cells were transformed with the corresponding constructed plasmids, pET28a (+) with selected EPSPS variants (wild-type, TIPS, TIPS P126S, TIPS K296R, TIPS P126S/K296R). A single colony of an E. coli BL21 (DE3) strain harboring one of the constructed plasmids was inoculated into 2 mL of Luria Bertani broth (LB) medium with 50 μg/mL kanamycin and grown overnight at 37° C./225 rpm. The overnight-grown culture (using 100 μl) was scaled up with 2000-fold dilution in a 500-mL triple baffled shake flask and grown to a cell density of 0.8 (optical density [OD600]) at 37° C./225 rpm. Protein expression was induced by adding 0.2 mM of isopropyl β-D-1-thiogalactopyranoside (IPTG) and cells were cultured for 24 hours at 20° C./225 rpm. The induced cell culture was harvested by centrifugation at 4,000 g and 4° C. for 20 mins. Cell pellets were then resuspended in 25 mL of Dulbecco's Phosphate Buffered Saline (DPBS) (Thermo Fisher Scientific, Waltham, MA) pH 7.0 buffer containing 10 mM imidazole, 1 g/L of lysozyme and 5 μl of Pierce™ Universal Nuclease (Thermo Fisher Scientific, Waltham, MA), followed by mixing on a rocker for 30 mins at 4° C. Subsequently, cells were lysed by sonication and the resulting cell lysate was centrifuged at 14,000 g and 4° C. for 20 minutes to obtain the supernatant that contains soluble proteins. Target proteins from the supernatant was purified by HisPur™ Ni-NTA Resin (Thermo Fisher Scientific, Waltham, MA) according to the manufacturer's instruction.
The eluate was dialyzed with 3C protease added to the dialysis cassette, into the appropriate buffer followed by size-exclusion fast protein liquid chromatography. All EPSP synthase variants were stored in 20 mM Tris (pH 7.5), 100 mM NaCl and 10 mM β-mercaptoethanol. The protein concentration was then determined by using the Coomassie Plus Bradford Assay kit (Thermo Fisher Scientific) and the Infinite M200 PRO microplate reader (Tecan, Männedorf, Switzerland) to measure the absorbance of assay mixtures. The presence and purity of the purified proteins were assessed by sodium dodecyl sulfate-polyacrylamide gel electrophoresis.
Enzymatic activity, including inhibitory constant Ki, for EPSPS and TIPS closely corroborate values determined by previous reports. Mutations P126S and K296R have beneficial effects on their own to both Km and kcat and are additive when combined, similar to the observations of the in vivo growth characterization. Furthermore, the high Ki is maintained for each of the variants, showing similar or slightly higher values of around 800 μM compared to the starting point, TIPS. These findings confirm the phenotype endowed by the dual-trait selection pressure employed during the directed evolution campaigns. Kinetic parameters of maize EPSPS with mutations discovered through directed evolution. In Table 4, initial velocity data were measured in triplicate and fit to the Michaelis-Menten equation. […]

Data set [3] has as its system transgenic maize plants. As to the kind of experiment: Maize transformation with glyphosate selection, plantlet recovery and quality checks. The data set is classed as in vivo, Zea mays. From the text: Maize was used as a model system to test the functionality of the EPSPS variants because of detailed previous characterization of glyphosate tolerance in maize and a suitable transgenic plant generation protocol that relies on glyphosate. Plant transformation vectors were generated in which the native maize EPSPS sequence was used, which includes the native gene promoter elements, the native introns and exons and the native 3′ untranslated region and introduced mutations that corresponded to each of the selected amino acid changes. The native sequence was used to mimic as closely as possible how the selected EPSPS variants would perform if the variants were introduced directly in the genome without the help of strong expression elements. The following variants were selected for testing in a transgenic maize system: TIPS (as a control); TIPS-P126S-M217L-K296R; TIPS-P126S-K296R; T102I-P126S-K296R (where only the T102I change is present); P106S-P126S-K296R (where only the P106S change is present); and P126S-K296R (where neither of the TIPS changes are present).
Transgenic maize plants that expressed each of the six EPSPS variants were generated to determine if the variants conferred glyphosate tolerance to plants. The full DNA sequence encoding TIPS EPSPS (SEQ ID NO:1) was cloned from maize genomic DNA. In this sequence, the promoter and 5′ UTR are nucleotides 1:2556; the chloroplast transit peptide sequence is nucleotides 2557:2742; EXON 1 is nucleotides 2743:2856; INTRON 1 is nucleotides 2857:3384; EXON 2 is nucleotides 3385:3626; INTRON 2 is nucleotides 3627:3725; EXON 3 is nucleotides 3726:3879; INTRON 3 is nucleotides 3880:4152; EXON 4 is nucleotides 4153:4367; INTRON 4 is nucleotides 4368:4877; EXON 5 is nucleotides 4878:4995; INTRON 5 is nucleotides 4996:5155; EXON 6 is nucleotides 5156:5366; INTRON 6 is nucleotides 5367:5446; EXON 7 is nucleotides 5447:5508; INTRON 7 is nucleotides 5509:5617; EXON 8 is nucleotides 5618:5836; and the 3′ UTR is nucleotides 5837:6368. Mutations were then introduced into the EPSPS coding sequence in order to produce each of the six EPSPS variants to be tested. These mutated full genomic DNA sequences were then each cloned as a single expression cassette into plant transformation vectors.
Agrobacterium tumefaciens-mediated plant transformation was performed using methods known in the art. Glyphosate selection was used to select for transgenic events containing the transgene of interest and further screened for only those EPSPS variants that provided effective glyphosate tolerance in a plant cell. While all six EPSPS variants began the transformation process with the same amount of starting maize cellular material, there were differences in the number of small plantlets recovered that were capable of being transplanted to greenhouse soil media (Table 4). Transgenic events were further analyzed to determine transgene copy number. Healthy events with single copy of the transgene of interest were grown in the greenhouse soil media. Only three of the six EPSPS variants had more than one plant surviving. Up to twenty-five of these developing R0 plants were transplanted to larger pots and allowed to grow to maturity for seed collection in the greenhouse.

[4] abbreviates: PEP at saturation (roughly 10 times its Km), read-out: Km (S3P).
Where [5] appears, read: S3P at saturation (roughly 10 times its Km), read-out: Km (PEP).

B1: P106S: well-studied EPSPS single mutant P106S (protein)
chain: AGAEEIVLQPIKEISGTVKLPGSKSLSNRILLLAALSEGTTVVDNLLNSEDVHYMLGALRTLGLSVEADKAAKRAVVVGCGGKFPVEDSKEEVQLFLGNAGTAMRSLTAAVTAAGGNATYVLDGVPRMRERPIGDLVVGLKQLGADVDCFLGTDCPPVRVNGIGGLPGGKVKLSGSISSQYLSALLMAAPLALGDVEIEIIDKLISIPYVEMTLRLMERFGVKAEHSDSWDRFYIKGGQKYKSPKNAYVEGDASSASYFLAGAAITGGTVTVEGCGTTSLQGDVKFAEVLEMMGAKVTWTETSVTVTGPPREPFGRKHLKAIDVNMNKMPDVAMTLAVVALFADGPTAIRDVASWRVKETERMVAIRTELTKLGASVEEGPDYCIITPPEKLNVTAIDTYDDHRMAMAFSLAACAEVPVAIRDPGCTRKTFPDYFDVLSTFVKN
With B1, the “growth in yeast minimal media without glyphosate” value in data set [1] was “grew very similarly”. Also, the growth in glyphosate entry in data set [1] (0.5 mM glyphosate, Core1p promoter) is listed as “slightly higher growth than EPSPS after 80 hours”; in data set [1] (5 mM glyphosate (high levels)) it was “no growth”. For the same molecule, the “order of glyphosate tolerance” value in data set [1] is recorded as “P106S<T102I<TIPS”.

B2: TIPS-K296R: maize EPSPS variant, SEQ ID NO:16 (protein)
chain: B1 chain with T102I, K296R
modifications: Zea mays
For B2, the results for the Km in data set [2] (setting [4]) and in data set [2] (setting [5]) were 16.5 µM and 24 µM, respectively. The molecule also registered a Ki in data set [2] of 841 µM.

B3: TIPS-P126S: maize EPSPS variant, SEQ ID NO:15 (protein)
chain: B1 chain with T102I, P126S
modifications: Zea mays
B3: the Michaelis constant (Km) in data set [2] (setting [4]) was determined as 28.2 µM; in data set [2] (setting [5]), 13.7 µM. Also, the inhibition constant (Ki) in data set [2] came to 859 µM.

B4: T102I: well-studied EPSPS single mutant T102I (protein)
chain: B1 chain with T102I, S106P
With B4, the “order of glyphosate tolerance” value in data set [1] was “P106S<T102I<TIPS”.

B5: P106S-K296R: P106S scaffold carrying ported mutation(s), as worded in b196 (protein)
chain: B1 chain with K296R
As for B5, the growth in glyphosate result in data set [1] (5 mM glyphosate (high levels)) is recorded as “observable growth”.

B6: TIPS-P126L: maize EPSPS variant, SEQ ID NO:22 (protein)
chain: B1 chain with T102I, P126L
modifications: Zea mays
Consider B6, for which, in data set [1], the “glyphosate tolerance in synthetic yeast host” value is “moderate glyphosate tolerance”.

B7: TIPS-1177V: maize EPSPS variant, SEQ ID NO:21 (protein)
chain: B1 chain with T102I, I177V
modifications: Zea mays
As to B7, the “glyphosate tolerance in synthetic yeast host” value in data set [1] is on record as “moderate glyphosate tolerance”.

B8: TIPS-V66L-M104L: maize EPSPS variant, SEQ ID NO:17 (protein)
chain: B1 chain with V66L, T102I, M104L
modifications: Zea mays
For B8, in data set [1], the “growth in yeast minimal media without glyphosate” value was “high growth in non-glyphosate” and the “glyphosate tolerance in synthetic yeast host” value is “high glyphosate tolerance”.

B9: T102I-P126S-K296R: maize EPSPS variant, SEQ ID NO:12 (protein)
chain: B1 chain with T102I, S106P, P126S, K296R
modifications: Zea mays
B9: the “Number of young plants passing quality control checks” value in data set [3] (in vivo) was 1. For the same molecule, the “Number of plantlets generated” value in data set [3] (under glyphosate selection, same amount of starting material) came to 69.
